Assay results from article PMC5410128, “Can Aptameric Ligands Specific to Plasma Coagulation Factor VII Bind the Recombinant Form with High Affinity: Affinity Measurement by Fluorescence Method”.

B1: Apt81 (ssDNA)
DNA: GGGAGATAGCCACGACCTATGCAGCCAGCCGCAGTGTAAGTGAATGCAGACATGGTCTAAGTGTCCAGGCTGTGCGAAAGC

Molecular target: recombinant activated coagulation factor VII (FVIIa, AryoSeven) (UniProt P08709;P08709 61-212;213-466)
Assay: fluorescence intensity change (FAM), plate reader; 5 mM Ca2+, 5 mM Mg2+; 40 mM Tris, 117 mM NaCl, 5 mM CaCl2, 5 mM MgCl2, pH 7.4; 1 nM protein, aptamer 100 pM-10 uM; 4 C, 1 h; errors are SE
Details: copies: 1;1, single strand, predicted partly folded

recombinant activated coagulation factor VII (FVIIa, AryoSeven), sequence (P08709 61-212, chain 1 of 2): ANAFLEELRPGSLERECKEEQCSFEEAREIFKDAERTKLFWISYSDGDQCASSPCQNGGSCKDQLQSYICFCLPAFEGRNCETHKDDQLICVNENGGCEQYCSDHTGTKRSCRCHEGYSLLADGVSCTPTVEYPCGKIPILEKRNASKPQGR
recombinant activated coagulation factor VII (FVIIa, AryoSeven), sequence (P08709 213-466, chain 2 of 2): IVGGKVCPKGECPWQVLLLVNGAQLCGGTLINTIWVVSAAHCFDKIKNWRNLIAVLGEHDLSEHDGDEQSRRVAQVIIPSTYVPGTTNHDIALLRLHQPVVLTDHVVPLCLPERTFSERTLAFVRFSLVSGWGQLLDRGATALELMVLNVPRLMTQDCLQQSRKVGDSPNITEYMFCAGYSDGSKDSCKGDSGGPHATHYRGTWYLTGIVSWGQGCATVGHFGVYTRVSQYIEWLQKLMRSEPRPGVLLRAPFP

| Binder | Kd [nM] |
| --- | --- |
| B1 | 938 ± 149 |
| CCGCACACCACGCGCATAATCCCGCGCACACGACTTGAAGTAGC (ssDNA) [Apt44] | 167 ± 18 |
